Where no end group is shown, it is not given here.
How the values were obtained:
Anti-PSMA Fab [1] = molecular target: T1, Anti-PSMA Fab (biotinylated (site not stated)); assay: phage ELISA; biotinylated anti-PSMA Fab on neutravidin plate, anti-M13-HRP detection, no PSMA antigen
T1 construct: The biotinylated PSMA Fab was captured on neutravidin coated plates for the phage ELISA; also called 006 PSMA Fab

Anti-PSMA Fab [2] = molecular target: T1, Anti-PSMA Fab; assay: phage ELISA; captured anti-PSMA Fab pre-incubated with PSMA antigen as competitor
Experimental: (§1) Clonal phage were harvested as crude supernatants and screened via standard ELISAs. […] Prior to the addition of clonal phage. wells were incubated with blocking buffer and PSMA antigen or blocking buffer alone. Without washing or aspirating, clonal phage supernatants were then added to the wells and incubated for a short time. Wells were then washed followed by detection of bound phage using a horse radish conjugated anti-M13 antibody.

PSMA Fab [3] = molecular target: T2, PSMA Fab (biotinylated (site not stated)); assay: phage ELISA; biotinylated PSMA Fab on neutravidin plate, clonal phage supernatant, anti-M13 HRP detection;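 also: wells preincubated with PSMA antigen in blocking buffer or with blocking buffer only before clonal phage were added for a short incubation, then bound phage detected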
T2 construct: also called Anti-PSMA Fab; 006 PSMA Fab

PSMA Fab [4] = molecular target: T2, PSMA Fab; assay: phage ELISA; PSMA Fab on plate pre-incubated with PSMA antigen as competitor, anti-M13 HRP detection;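 also: crude clonal phage supernatants added to Fab-coated wells still holding PSMA antigen in blocking buffer, with bound phage as read-out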
Experimental: as §1

PSMA Fab [5] = molecular target: T3, PSMA Fab (biotinylated (site not stated)); assay: phage ELISA, captured anti-PSMA Fab pre-incubated with PSMA antigen as competitor, anti-M13 HRP detection
T3 construct: Biotinylated PSMA Fab captured on neutravidin coated plates in the phage ELISA; also called Anti-PSMA Fab; 006 PSMA Fab

PSMA Fab [6] = molecular target: T3, PSMA Fab; assay: phage ELISA, biotinylated anti-PSMA Fab on neutravidin plate, anti-M13 HRP detection
Experimental: as §1

Binder	Phage binding ELISA signal, Anti-PSMA Fab (Anti-PSMA Fab [1])	Phage binding ELISA signal, Anti-PSMA Fab with PSMA antigen (Anti-PSMA Fab [2])	other results
FGYACIPNWMCTVF (It was tested as crude clonal phage supernatant; also called Peptide-180 library clone) [Phage-2978]	2.24	0.122	
AGIRCVPEWMCLGF (It was tested as crude clonal phage supernatant; also called Peptide-180 library clone) [Phage-2984]	2.23	0.0784	
VEHWCRPEWMCAGF (It was tested as crude clonal phage supernatant; also called Peptide-180 library clone) [Phage-2980]	2.24	0.0893	
LLVRCQPEWMCVGF (It was tested as crude clonal phage supernatant; also called Peptide-180 library clone) [Phage-2987]	2.23	0.14	
YEIRCEPKWMCMGF [Phage-2992]			Phage binding ELISA signal, Anti-PSMA Fab (PSMA Fab [3]): 2.22; phage binding ELISA signal (Anti-PSMA Fab, PSMA antigen present) (PSMA Fab [4]): 0.0735
FTAYCKPAWMCQGL (It was tested as crude clonal phage supernatant; also called Peptide-180 library clone) [Phage-2988]	2.22	0.0917	
TELRCVPSWMCTGF (It was tested as crude clonal phage supernatant; also called Peptide-180 library clone) [Phage-2977]	2.24	0.0676	
GVPMCVPDWMCHGL (cysteine pairing not given here; also: peptide displayed as fusion to phage pIII, Clonal phage of the peptide-180 optimisation library, tested as crude phage supernatant; not shown: bacteriophage pIII coat protein to which the peptide is fused for display) [Phage-2975]			Phage binding ELISA signal, Anti-PSMA Fab in presence of PSMA antigen (PSMA Fab [5]): 0.073; Phage binding ELISA signal, Anti-PSMA Fab (PSMA Fab [6]): 2.24
SQPMCIPVWMCRGF (It was tested as crude clonal phage supernatant; also called Peptide-180 library clone) [Phage-2986]	2.23	0.109	
TTIMCEPTWMCTGF (cysteine pairing not given here; also: peptide displayed as fusion to phage pIII) [Phage-2990]			Phage binding ELISA signal, Anti-PSMA Fab (PSMA Fab [3]): 2.22; phage binding ELISA signal (Anti-PSMA Fab, PSMA antigen present) (PSMA Fab [4]): 0.0683
DDRMCIPSWMCSGL (It was tested as crude clonal phage supernatant; also called Peptide-180 library clone) [Phage-2981]	2.24	0.0851	
TVVMCKPSWMCEGF (It was tested as crude clonal phage supernatant; also called Peptide-180 library clone) [Phage-2989]	2.22	0.083	
FEMLCKPAWMCSGF (It was tested as crude clonal phage supernatant; also called Peptide-180 library clone) [Phage-2976]	2.24	0.0857	
PERMCRPLWMCEGF (It was tested as crude clonal phage supernatant; also called Peptide-180 library clone) [Phage-2983]	2.23	0.11	
EEVYCVPKWMCLGF (It was tested as crude clonal phage supernatant; also called Peptide-180 library clone) [Phage-2985]	2.23	0.0871	
PMHACIPMWMCAGF (It was tested as crude clonal phage supernatant; also called Peptide-180 library clone) [Phage-2982]	2.23	0.114	
FHVRCVPEWMCWGF [Phage-2991]			Phage binding ELISA signal, Anti-PSMA Fab (PSMA Fab [3]): 2.22; phage binding ELISA signal (Anti-PSMA Fab, PSMA antigen present) (PSMA Fab [4]): 0.153
SEIACRPAWMCQWL (It was tested as crude clonal phage supernatant; also called Peptide-180 library clone) [Phage-2979]	2.24	0.125	

From patent US20260242478A1 (published 2026)
